Data from patent US20260274955A1 (JANUX THERAPEUTICS, published 2026).
No end group written: not given here.

Key:
[1] = target: anti-CD28 Fab (SEQ ID NOs: 202, 203); experiment: phage binding ELISA; biotinylated anti-CD28 Fab captured on neutravidin plate, clonal phage supernatant, anti-M13-HRP detection;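 further: before crude clonal phage supernatants were added, wells were preincubated with CD28 antigen in blocking buffer or with blocking buffer only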
[2] = target: T1, anti-CD28 Fab (SEQ ID NOs: 202, 203); experiment: binding ELISA, peptide captured, anti-CD28 Fab titrated
T1 construct: biotinylated when captured in the phage ELISAs

Ab-1 [3] = target: T2, Ab-1; experiment: BLI (Octet), 200 nM peptide, 100 nM Ab-1;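 further: association and dissociation phases tracked in real time, with kinetics fitted to a 1:1 interaction model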
T2 construct: also called anti-CD28 scFv harbored in Ab-1

Ab-1 [4] = target: T2, Ab-1; experiment: binding ELISA, peptide captured, Ab-1 titrated
Ab-1 [5] = target: T2, Ab-1; experiment: competition ELISA, peptide titrated vs 1 nM Ab-1 binding plate-bound CD28

Binder: RCKAGVPYKWPMCL [Phage-1233]
- Anti-CD28 Fab (SEQ ID NOs: 202, 203) signal [1]: 0.87

Binder: VCAAGAAYPWPACL [Phage-1226]
- Anti-CD28 Fab (SEQ ID NOs: 202, 203) signal [1]: 0.93

Binder: TCAAGAAWGWPLCF (cysteine pairing not given here; also: biotinylated, site not given here) [Peptide-95]
- EC50 [2]: 5.6 nM

Binder: SCAAGATYKWPACF [Phage-1240]
- Anti-CD28 Fab (SEQ ID NOs: 202, 203) signal [1]: 0.8

Binder: QCAAGFSYTWPECY [Phage-1231]
- Anti-CD28 Fab (SEQ ID NOs: 202, 203) signal [1]: 0.9

Binder: LCAAVFAYTWPMCF [Phage-1220]
- Anti-CD28 Fab (SEQ ID NOs: 202, 203) signal [1]: 0.98

Binder: TCAAGATWSWPACF (cysteine pairing not given here; also: biotinylated, site not given here) [Peptide-94]
- EC50 [2]: 4.5 nM

Binder: TCAAGATYEWPSCI [Phage-1234]
- Anti-CD28 Fab (SEQ ID NOs: 202, 203) signal [1]: 0.86

Binder: TCSAGATWPWPICL (cysteine pairing not given here; also: biotinylated, site not given here) [Peptide-89]
- EC50 [2]: 2.1 nM

Binder: TCAAGATWVWPTCF [Phage-1228]
- Anti-CD28 Fab (SEQ ID NOs: 202, 203) signal [1]: 0.92

Binder: WCAAFFHYPWPQCF [Phage-1232]
- Anti-CD28 Fab (SEQ ID NOs: 202, 203) signal [1]: 0.87

Binder: LCAAGASWPWPVCL (cysteine pairing not given here; also: biotinylated, site not given here) [Peptide-90]
- EC50 [2]: 13.1 nM

Binder: TCSAGATYKWPTCL [Phage-1222]
- Anti-CD28 Fab (SEQ ID NOs: 202, 203) signal [1]: 0.97

Binder: SCSAGAMWLWPECF [Phage-1241]
- Anti-CD28 Fab (SEQ ID NOs: 202, 203) signal [1]: 0.8

Binder: TCAAGAKYVWPLCF [Phage-1235]
- Anti-CD28 Fab (SEQ ID NOs: 202, 203) signal [1]: 0.85

Binder: PCAAGAHYVWPVCF [Phage-1221]
- Anti-CD28 Fab (SEQ ID NOs: 202, 203) signal [1]: 0.97

Binder: SCAAGASYSWPLCF [Phage-1225]
- Anti-CD28 Fab (SEQ ID NOs: 202, 203) signal [1]: 0.95

Binder: TCSAGAMYNWPECF [Phage-1229]
- Anti-CD28 Fab (SEQ ID NOs: 202, 203) signal [1]: 0.92

Binder: LCEAGFNYDWPRCL [Phage-1236]
- Anti-CD28 Fab (SEQ ID NOs: 202, 203) signal [1]: 0.85

Binder: SCAAGATYEWPTCL [Phage-1239]
- Anti-CD28 Fab (SEQ ID NOs: 202, 203) signal [1]: 0.81

Binder: WCSAVFSYQWPPCF [Phage-1242]
- Anti-CD28 Fab (SEQ ID NOs: 202, 203) signal [1]: 0.78

Binder: ADWCPRDLWVHCFA (cysteine pairing not given here; also: biotinylated, site not given here) [Peptide-2]
- Octet signal (Ab-1 [3]): 0.7
- t1/2 (Ab-1 [3]): 3.1 min
- EC50 (Ab-1 [4]): 75.9 nM
- IC50 (Ab-1 [5]): 2000 nM

Binder: IDWCPRDLWVHCFA (cysteine pairing not given here; also: biotinylated, site not given here) [Peptide-10]
- Octet signal (Ab-1 [3]): 0.845
- t1/2 (Ab-1 [3]): 3.1 min
- EC50 (Ab-1 [4]): 44.9 nM
- IC50 (Ab-1 [5]): 2660 nM

Binder: YDWCPRDLWVHCFA (cysteine pairing not given here; also: biotinylated, site not given here) [Peptide-18]
- Octet signal (Ab-1 [3]): 0.849
- t1/2 (Ab-1 [3]): 2.9 min
- EC50 (Ab-1 [4]): 32.2 nM
- IC50 (Ab-1 [5]): 3250 nM

Binder: DDWCPRDLWVHCFA (cysteine pairing not given here; also: biotinylated, site not given here) [Peptide-5]
- Octet signal (Ab-1 [3]): 0.461
- t1/2 (Ab-1 [3]): 4.2 min
- EC50 (Ab-1 [4]): 86.8 nM
- IC50 (Ab-1 [5]): 4460 nM

Binder: VDWCPRDLWVHCFA (cysteine pairing not given here; also: biotinylated, site not given here) [Peptide-19]
- Octet signal (Ab-1 [3]): 0.919
- t1/2 (Ab-1 [3]): 2.9 min
- EC50 (Ab-1 [4]): 32.5 nM
- IC50 (Ab-1 [5]): 4420 nM

Binder: LDWCPRDLWVHCFA (cysteine pairing not given here; also: biotinylated, site not given here) [Peptide-11]
- Octet signal (Ab-1 [3]): 1.37
- t1/2 (Ab-1 [3]): 4.5 min
- EC50 (Ab-1 [4]): 23.4 nM
- IC50 (Ab-1 [5]): 630 nM

Binder: GDWCPRDLWVHCFA (cysteine pairing not given here; also: biotinylated, site not given here) [Peptide-8]
- Octet signal (Ab-1 [3]): 0.479
- t1/2 (Ab-1 [3]): 3.9 min
- EC50 (Ab-1 [4]): 73.9 nM
- IC50 (Ab-1 [5]): 7060 nM

Binder: NDWCPRDLWVHCFA (cysteine pairing not given here; also: biotinylated, site not given here) [Peptide-4]
- Octet signal (Ab-1 [3]): 0.434
- t1/2 (Ab-1 [3]): 4 min
- EC50 (Ab-1 [4]): 84.3 nM
- IC50 (Ab-1 [5]): 5030 nM

Binder: PDWCPRDLWVHCFA (cysteine pairing not given here; also: biotinylated, site not given here) [Peptide-14]
- Octet signal (Ab-1 [3]): 0.328
- t1/2 (Ab-1 [3]): 3.4 min
- EC50 (Ab-1 [4]): 102 nM
- IC50 (Ab-1 [5]): 8340 nM

Binder: SDWCPRDLWVHCFA (cysteine pairing not given here; also: biotinylated, site not given here) [Peptide-15]
- Octet signal (Ab-1 [3]): 0.551
- t1/2 (Ab-1 [3]): 2.9 min
- EC50 (Ab-1 [4]): 66.5 nM
- IC50 (Ab-1 [5]): 2630 nM

Binder: HDWCPRDLWVHCFA (cysteine pairing not given here; also: biotinylated, site not given here) [Peptide-9]
- Octet signal (Ab-1 [3]): 0.737
- t1/2 (Ab-1 [3]): 3 min
- EC50 (Ab-1 [4]): 45.4 nM
- IC50 (Ab-1 [5]): 2180 nM

Binder: FDWCPRDLWVHCFA (cysteine pairing not given here; also: biotinylated, site not given here) [Peptide-13]
- Octet signal (Ab-1 [3]): 1.01
- t1/2 (Ab-1 [3]): 3.3 min
- EC50 (Ab-1 [4]): 39.3 nM
- IC50 (Ab-1 [5]): 780 nM

Binder: WDWCPRDLWVHCFA (cysteine pairing not given here; also: biotinylated, site not given here) [Peptide-17]
- Octet signal (Ab-1 [3]): 1.15
- t1/2 (Ab-1 [3]): 4.1 min
- EC50 (Ab-1 [4]): 21.7 nM
- IC50 (Ab-1 [5]): 2800 nM

Binder: TCSAGAHYPWPMCL [Phage-1227]
- Anti-CD28 Fab (SEQ ID NOs: 202, 203) signal [1]: 0.93

Binder: ECGWEPGQHWRVCF [Phage-1238]
- Anti-CD28 Fab (SEQ ID NOs: 202, 203) signal [1]: 0.82

Binder: MCAAGAMYNWPLCL [Phage-1224]
- Anti-CD28 Fab (SEQ ID NOs: 202, 203) signal [1]: 0.95

Binder: TCSAGATYTWPKCF (cysteine pairing not given here; also: biotinylated, site not given here) [Peptide-93]
- EC50 [2]: 15.7 nM

Binder: TCSAGAMYSWPLCI [Phage-1230]
- Anti-CD28 Fab (SEQ ID NOs: 202, 203) signal [1]: 0.91

Binder: TCAAGASWDWPFCF [Phage-1237]
- Anti-CD28 Fab (SEQ ID NOs: 202, 203) signal [1]: 0.82

Binder: TCSAGASYPWPLCL (cysteine pairing not given here; also: biotinylated, site not given here) [Peptide-91]
- EC50 [2]: 5.3 nM

Binder: TCSAGAAYPWPLCL (cysteine pairing not given here; also: biotinylated, site not given here) [Peptide-97]
- EC50 [2]: 4.4 nM

Binder: TCAAGAAWPWPQCL (cysteine pairing not given here; also: biotinylated, site not given here) [Peptide-92]
- EC50 [2]: 2.6 nM

Binder: SCAAGAHWSWPACL [Phage-1223]
- Anti-CD28 Fab (SEQ ID NOs: 202, 203) signal [1]: 0.97
